Experimental data from article PMC8591511, “Flexible open conformation of the AP-3 complex explains its role in cargo recruitment at the Golgi” (The Journal of Biological Chemistry, 2021).

B1: Apl6 (β3-subunit of yeast AP-3) (natural protein, S. cerevisiae, UniProt P46682 1-809, looked up)
chain: MVDSIHRIASALDTAKVITREAAAVATSKLGESSYTYYSQNINPQQLVTLLNSRNSREVRDAMKRIISIMASDDDSIDVQLYFADVVKNITTNDTKVKRLIHLYLLRFAENDPNLTLLSINSLQKSLSDSNSELRCFALSALSDMKMSSLAPIILHTVKKLVTDPSAMVRGEVALAIIKLYRAGKNDYHEELLDILKELMADTDPKVISCAVLAYKECYADHLELLHGHFRRYCRIIKQLDSWSQSYLIELLIKYCKQYLPKPTVVDKSSEGSPRSCPLPDKYNEIEYPSYEVVNDPDLDLFLQSLNCLIYSSNPTVILSCCNALYQLASPLQMKNTKFIEALVRTVTMTENQGNKEMLLQAIHFLSILDQTLFLPYTKKFYVFPKDPIVASIWKIQILSTLINESNVKEIFKELKYYVASAHFPENVVIMAVKSLSRCGQLSTSWESHVMKWLIDHMESHNLSASVLDAYVNVIRMLVQKNPTKHLRIIFKLADLLTVQTSLADNARAGIVWLFGEIASIEFKICPDVLRRLIQNFSNEGPETRCQILVLSAKLLSYDIDNFKQAQVTGSEENNQNPPYYDFSGSRISQMYNAVLYLAKYDDEFDIRDRARMISSLFDSGKYEIVSLLLQAPKPTARSDDFIVSARLETHTPEIKEFFRMLPWNTEITEVGETGNDIREGAELKDYNKYKKSFSSQSFITNNSARSFTSSSNAKLTGINDGDSNSISGKGNVNTFTSQNGKKYRLQSLDEFFSDIPERKSKPRKIIKVVEESSDEDEDESEESSDDDEYSDSSLGTSSSGTSSSHLEL
notes: Apl6, β3-subunit of the yeast AP-3 complex; ear domain aa 631–809

Experiments:
[1] = biological target: Vam3 (yeast vacuolar SNARE, AP-3 cargo with dileucine motif) (yeast) (UniProt Q12241); assay: liposome flotation assay; proteoliposomes (Golgi-mimicking lipid mix) carrying a total of 1 μM cargo, incubated with purified AP-1 or AP-3 complex, floated on a sucrose step gradient; top fraction TCA-precipitated, SDS-PAGE, band of Apl4 or Apl5 quantified as percent of load; in Fig. 6E without PIPs or Arf1, in Fig. 6D also with Arf1 and PI3P or PI4P; 150 mM NaCl, 20 mM HEPES/NaOH pH 7.4, 1 mM MgCl2, 10 % glycerol, 60 min 4 °C
[2] = biological target: GST-Chs3(aa1-38)-Vam3(TMD) (not stated | yeast) (UniProt P29465); assay: as above
[3] = biological target: N-myristoylated Arf1, loaded with GTP or GTPγS by Sec7ΔC (UniProt P11076); assay: liposome flotation assay; empty liposomes (Golgi-mimicking lipid mix, with or without PI3P or PI4P) incubated with increasing Arf1, Sec7 GEF and GTP, then purified AP-1 or AP-3 complex; floated on a sucrose step gradient; band of Apl4 or Apl5 in the top fraction quantified
[4] = biological target: T1, Apl5 (δ-subunit of yeast AP-3) with C-terminal 3xFLAG-tag (S. cerevisiae, UniProt Q08951 1-932); assay: pull-down + SEC; subunits overproduced together in yeast; captured from cleared lysate on anti-FLAG M2 affinity gel via the C-terminal 3xFLAG-tag on Apl5 (AP-3) or Apl4 (AP-1), eluted with FLAG-peptide, run on Superose 6 Increase; 150 mM NaCl, 20 mM HEPES/NaOH pH 7.4, 1.5 mM MgCl2; Coomassie staining after SDS-PAGE; conditions: partners not purified
T1 construct: Apl5, δ-subunit of the yeast AP-3 complex; ear domain aa 639–932; also called δ-adaptin; not shown: 3xFLAG, C-terminal, kept
T1 sequence (looked up): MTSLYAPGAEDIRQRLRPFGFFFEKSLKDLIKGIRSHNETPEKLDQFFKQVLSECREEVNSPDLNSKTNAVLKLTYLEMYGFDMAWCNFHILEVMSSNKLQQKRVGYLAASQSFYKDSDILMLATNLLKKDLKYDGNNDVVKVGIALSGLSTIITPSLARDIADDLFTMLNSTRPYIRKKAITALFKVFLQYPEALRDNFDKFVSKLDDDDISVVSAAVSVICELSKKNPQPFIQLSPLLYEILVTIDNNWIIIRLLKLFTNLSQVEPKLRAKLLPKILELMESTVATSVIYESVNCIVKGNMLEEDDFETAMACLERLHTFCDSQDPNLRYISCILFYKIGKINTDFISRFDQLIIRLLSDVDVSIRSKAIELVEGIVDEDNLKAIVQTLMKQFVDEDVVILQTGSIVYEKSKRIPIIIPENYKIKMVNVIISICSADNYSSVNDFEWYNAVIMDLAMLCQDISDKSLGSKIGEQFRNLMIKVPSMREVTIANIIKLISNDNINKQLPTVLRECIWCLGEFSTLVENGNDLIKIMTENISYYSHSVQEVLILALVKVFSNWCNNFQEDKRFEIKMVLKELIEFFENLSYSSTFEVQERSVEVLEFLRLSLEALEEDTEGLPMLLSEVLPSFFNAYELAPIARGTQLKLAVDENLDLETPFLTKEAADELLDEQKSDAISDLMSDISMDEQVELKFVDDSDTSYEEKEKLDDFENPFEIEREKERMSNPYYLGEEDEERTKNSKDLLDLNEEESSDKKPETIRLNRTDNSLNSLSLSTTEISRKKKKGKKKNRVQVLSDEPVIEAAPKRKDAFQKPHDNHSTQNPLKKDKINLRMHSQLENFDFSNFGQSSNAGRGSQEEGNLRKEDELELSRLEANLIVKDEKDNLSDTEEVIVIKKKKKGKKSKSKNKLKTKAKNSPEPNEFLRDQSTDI

[5] = biological target: B1; assay: cross-linking; 200 μg of purified AP-3 complex, DSSO 0.5 mM added twice, 20 min each at room temperature, quenched with Tris; trypsin, SCX, LC/MS (XlinkX, 1% FDR); conditions: both partners purified
[6] = biological target: T2, full-length yeast AP-3 complex (S. cerevisiae, UniProt Q08951 1-932; P46682 1-809; P38153 1-483; P47064 1-194); assay: liposome flotation assay; proteoliposomes (Golgi-mimicking lipid mix) carrying a total of 1 μM cargo, incubated with purified AP-1 or AP-3 complex, floated on a sucrose step gradient; top fraction TCA-precipitated, SDS-PAGE, band of Apl4 or Apl5 quantified as percent of load; in Fig. 6E without PIPs or Arf1, in Fig. 6D also with Arf1 and PI3P or PI4P; 150 mM NaCl, 20 mM HEPES/NaOH pH 7.4, 1 mM MgCl2, 10 % glycerol, …; conditions: both partners purified
T2 construct: Apl5, δ-subunit of the yeast AP-3 complex; ear domain aa 639–932; Apl6, β3-subunit of the yeast AP-3 complex; ear domain aa 631–809; Apm3, μ3-subunit of the yeast AP-3 complex; Aps3, σ-subunit of the yeast AP-3 complex; Heterotetramer with apparent equimolar stoichiometry, about 300 kDa; also called adapter protein complex 3; copies: + + +

[7] = biological target: T1, Apl5 (δ-subunit of yeast AP-3) with …; assay: cross-linking; 200 μg of purified AP-3 complex, DSSO 0.5 mM added twice, 20 min each at room temperature, quenched with Tris; trypsin, SCX, LC/MS (XlinkX, 1% FDR); conditions: both partners purified

Sequence of Vam3 (yeast vacuolar SNARE, AP-3 cargo with dileucine motif) (yeast) (Q12241 whole entry, the tested form may be a part): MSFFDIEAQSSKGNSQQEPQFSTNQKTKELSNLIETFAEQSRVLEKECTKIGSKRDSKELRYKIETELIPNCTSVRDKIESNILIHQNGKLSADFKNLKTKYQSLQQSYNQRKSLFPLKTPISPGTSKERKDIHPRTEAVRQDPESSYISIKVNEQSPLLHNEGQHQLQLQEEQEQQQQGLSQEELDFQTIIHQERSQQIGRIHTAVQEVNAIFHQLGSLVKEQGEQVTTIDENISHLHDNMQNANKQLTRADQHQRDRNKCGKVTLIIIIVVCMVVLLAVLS
Sequence of N-myristoylated Arf1, loaded with GTP or GTPγS by Sec7ΔC (P11076 whole entry, stated change not applied): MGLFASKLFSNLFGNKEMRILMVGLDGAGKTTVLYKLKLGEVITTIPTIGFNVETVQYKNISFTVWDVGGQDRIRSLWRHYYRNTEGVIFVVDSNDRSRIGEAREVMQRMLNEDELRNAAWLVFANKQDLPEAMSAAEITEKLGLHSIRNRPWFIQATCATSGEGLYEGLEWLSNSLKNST
Sequence of GST-Chs3(aa1-38)-Vam3(TMD) (not stated | yeast) (P29465 other isoform, or with tags, fused parts or gaps): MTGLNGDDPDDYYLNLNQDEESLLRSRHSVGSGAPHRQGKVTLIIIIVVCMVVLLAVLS

**Q.** How did the percent of AP-3 recruited to proteoliposomes (Vam3 alone) [1] turn out when “full-length yeast AP-3 complex, Q08951 1-932; P46682 1-809; P38153 1-483; P47064 1-194” was run?
**A.** > 25%

**Q.** And the percent of AP-3 recruited to proteoliposomes (Vam3 with low amounts of Arf1 and PIPs) [1]?
**A.** 50%

**Q.** And the percent of AP-3 recruited to proteoliposomes (without PIPs or Arf1) [1]?
**A.** 25%

**Q.** And the percent of AP-3 recruited to proteoliposomes (without PIPs or Arf1) [2]?
**A.** 25%

**Q.** What does the source list for “full-length yeast AP-1 complex (from UniProt Q12028 1-832)”?
**A.** fold increase in membrane-bound AP-1 with both Arf1-GTP and PI3P or PI4P [3]: 2 to 3 fold; percent of the complex bound to liposomes with Arf1-GTP (no PIPs) [3]: 10%

**Q.** Does B1 bind [4]?
**A.** binds

B2: Apm3 (μ3-subunit of yeast AP-3) (natural protein, S. cerevisiae, UniProt P38153 1-483, looked up)
chain: MYLSFYITDTKNKLIFQYLLGATAPSFKHLWTRVQSTCPQLLEDSSSDDYLDHSMVGRDLEVYKYFSVINKLNYWCLASTSKSKGPLDCFTFLETIDRILLEYFDKDKLSIKKIVNNYDRISLIFNCCVEAGEPNVSDMLYVNKIKEAVPERSDLSKFISSTAHNLQQAVQLPQQRQQQLQQNQISRGSNSLIENEEIVPWRTSRASKHENNELYVDLLETFHVVFEKKKSHLRLLTGSIHGIVDVRSYLNDNPLVAVKLNTMGNDIGIPSLHDCVEINDGVFSPSNITFIPPDGKFRLLEYSVDLSSQVKQSGVRMNSIGLMSLHFQNGLGKDSDEFELSLNIENFKKVSQVDDLKIDLQFNVENADPNEIAYKIKILRNTHGRFENSIIMGQGQWIFDKSTATGTVPVLRGCIEYENTGPNFTKKVDLQTVSLEYSYIGQSASGIYVEAIDIVSGLTIGKNTKLYKGAKYKTQTGNFQVRL
notes: Apm3, μ3-subunit of the yeast AP-3 complex; N-terminal domain aa 1–138, linker aa 139–211
**Q.** Does B2 bind [5]?
**A.** binds

**Q.** Does B2 bind [4]?
**A.** binds

B3: Nyv1 (yeast SNARE, AP-3 cargo with Yxxφ motif) (natural protein, UniProt Q12255 1-253, looked up)
chain: MKRFNVSYVEVIKNGETISSCFQPFQKNENYGTITSANEQITPVIFHNLIMDMVLPKVVPIKGNKVTKMSMNLIDGFDCFYSTDDHDPKTVYVCFTLVDMPKILPIRILSGLQEYESNATNELLSSHVGQILDSFHEELVEYRNQTLNSSGNGQSSNGNGQNTISDIGDATEDQIKDVIQIMNDNIDKFLERQERVSLLVDKTSQLNSSSNKFRRKAVNIKEIMWWQKVKNITLLTFTIILFVSAAFMFFYLW
notes: Nyv1, yeast SNARE; source: reconstituted into proteoliposomes
**Q.** Does B3 bind [6]?
**A.** binds

B4: Aps3 (σ-subunit of yeast AP-3) (natural protein, S. cerevisiae, UniProt P47064 1-194, looked up)
chain: MIHAVLIFNKKCQPRLVKFYTPVDLPKQKLLLEQVYELISQRNSDFQSSFLVTPPSLLLSNENNNDEVNNEDIQIIYKNYATLYFTFIVDDQESELAILDLIQTFVESLDRCFTEVNELDLIFNWQTLESVLEEIVQGGMVIETNVNRIVASVDELNKAAESTDSKIGRLTSTGFGSALQAFAQGGFAQWATGQ
notes: Aps3, σ-subunit of the yeast AP-3 complex
**Q.** Does B4 bind [7]?
**A.** binds

**Q.** Does B4 bind [5]?
**A.** binds
